# Assay results as given in IntAct's records for PubMed 28966017.
# B1: Drebrin (Homo sapiens), Q16643 (parent)
# chain: MAGVSFSGHRLELLAAYEEVIREESAADWALYTYEDGSDDLKLAASGEGGLQELSGHFENQKVMYGFCSVKDSQAALPKYVLINWVGEDVPDARKCACASHVAKVAEFFQGVDVIVNASSVEDIDAGAIGQRLSNGLARLSSPVLHRLRLREDENAEPVGTTYQKTDAAVEMKRINREQFWEQAKKEEELRKEEERKKALDERLRFEQERMEQERQEQEERERRYREREQQIEEHRRKQQTLEAEEAKRRLKEQSIFGDHRDEEEETHMKKSESEVEEAAAIIAQRPDNPREFFKQQERVASASAGSCDVPSPFNHRPGSHLDSHRRMAPTPIPTRSPSDSSTASTPVAEQIERALDEVTSSQPPPLPPPPPPAQETQEPSPILDSEETRAAAPQAWAGPMEEPPQAQAPPRGPGSPAEDLMFMESAEQAVLAAPVEPATADATEIHDAADTIETDTATADTTVANNVPPAATSLIDLWPGNGEGASTLQGEPRAPTPPSGTEVTLAEVPLLDEVAPEPLLPAGEGCATLLNFDELPEPPATFCDPEEVEGESLAAPQTPTLPSALEELEQEQEPEPHLLTNGETTQKEGTQASEGYFSQSQEEEFAQSEELCAKAPPPVFYNKPPEIDITCWDADPVPEEEEGFEGGD
# partner: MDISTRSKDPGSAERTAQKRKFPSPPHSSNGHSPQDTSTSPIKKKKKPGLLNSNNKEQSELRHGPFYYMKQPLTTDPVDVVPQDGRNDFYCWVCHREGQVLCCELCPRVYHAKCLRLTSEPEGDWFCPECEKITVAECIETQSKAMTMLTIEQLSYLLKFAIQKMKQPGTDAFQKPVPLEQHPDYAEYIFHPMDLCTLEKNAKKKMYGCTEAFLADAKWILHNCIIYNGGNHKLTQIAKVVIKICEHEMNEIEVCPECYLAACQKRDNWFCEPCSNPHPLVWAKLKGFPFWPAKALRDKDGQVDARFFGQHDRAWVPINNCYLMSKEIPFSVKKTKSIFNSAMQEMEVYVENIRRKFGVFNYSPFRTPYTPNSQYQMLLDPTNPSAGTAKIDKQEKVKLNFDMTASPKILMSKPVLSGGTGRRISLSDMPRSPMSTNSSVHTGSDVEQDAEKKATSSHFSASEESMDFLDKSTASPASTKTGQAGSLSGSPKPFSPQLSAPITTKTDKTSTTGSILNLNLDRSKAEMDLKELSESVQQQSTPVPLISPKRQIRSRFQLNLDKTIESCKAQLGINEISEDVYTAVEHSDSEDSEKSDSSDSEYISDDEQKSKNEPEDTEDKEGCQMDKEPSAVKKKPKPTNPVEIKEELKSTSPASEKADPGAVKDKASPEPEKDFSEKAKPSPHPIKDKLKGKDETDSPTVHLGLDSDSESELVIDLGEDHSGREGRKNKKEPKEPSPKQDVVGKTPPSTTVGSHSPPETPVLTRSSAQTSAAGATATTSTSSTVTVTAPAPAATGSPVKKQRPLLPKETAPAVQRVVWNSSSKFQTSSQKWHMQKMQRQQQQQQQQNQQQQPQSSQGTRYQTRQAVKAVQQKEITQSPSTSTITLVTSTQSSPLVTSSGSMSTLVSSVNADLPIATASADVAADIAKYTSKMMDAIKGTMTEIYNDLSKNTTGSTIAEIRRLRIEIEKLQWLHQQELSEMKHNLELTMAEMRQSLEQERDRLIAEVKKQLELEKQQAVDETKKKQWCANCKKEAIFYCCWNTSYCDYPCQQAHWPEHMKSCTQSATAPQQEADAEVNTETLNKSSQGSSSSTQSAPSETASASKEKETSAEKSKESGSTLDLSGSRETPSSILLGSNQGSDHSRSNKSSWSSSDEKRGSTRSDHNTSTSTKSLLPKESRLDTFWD
# B2: MYND-type zinc finger-containing chromatin reader ZMYND8 (Homo sapiens), Q9ULU4 (parent)
# chain: B1 partner
# partner: B1 chain
# Variants of: B1
# Conditions: with zmyd8_human ZMYND8, Q9ULU4
row,effect of a mutation on the interaction,Variant
1,disrupting interaction strength,R10G

# Variants of: B2
# Conditions: with dreb_human DBN1, Q16643
row,effect of a mutation on the interaction,Variant
1,disrupting interaction strength,H311A
